Results from article PMC3939493, “Structure of the SAS-6 cartwheel hub from Leishmania major” (eLife, 2014).
Numbering of substitutions follows the chain as printed. In names and notes the source's numbering stands.

Columns and labels:
[1] = target: T1, SAS-6 (Leishmania major, UniProt E9AFQ5); assay: SEC-MALS of purified protein with […] PK9119 (oligomerization reduced); assay type: biochemical
T1 construct: gene LMJF_35_4280; SAS-6^97–424
T1 sequence (E9AFQ5 97-424): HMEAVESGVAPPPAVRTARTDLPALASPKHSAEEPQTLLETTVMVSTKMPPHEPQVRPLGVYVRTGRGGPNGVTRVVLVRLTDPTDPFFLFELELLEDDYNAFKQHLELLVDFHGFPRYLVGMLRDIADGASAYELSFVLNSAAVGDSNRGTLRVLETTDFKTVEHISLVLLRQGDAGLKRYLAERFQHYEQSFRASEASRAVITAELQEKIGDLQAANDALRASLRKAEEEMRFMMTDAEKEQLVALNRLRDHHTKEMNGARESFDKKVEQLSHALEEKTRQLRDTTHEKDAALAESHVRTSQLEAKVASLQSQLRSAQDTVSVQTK

[2] = target: T2, SAS-6 (Danio rerio, UniProt Q7ZVT3, F131D); assay: SEC-MALS of purified protein with […] PK9119 (oligomerization reduced, less than for L. major); assay type: biochemical
T2 construct: gene sass6; Dr SAS-6^1–326
T2 sequence (Q7ZVT3 1-326 F131D): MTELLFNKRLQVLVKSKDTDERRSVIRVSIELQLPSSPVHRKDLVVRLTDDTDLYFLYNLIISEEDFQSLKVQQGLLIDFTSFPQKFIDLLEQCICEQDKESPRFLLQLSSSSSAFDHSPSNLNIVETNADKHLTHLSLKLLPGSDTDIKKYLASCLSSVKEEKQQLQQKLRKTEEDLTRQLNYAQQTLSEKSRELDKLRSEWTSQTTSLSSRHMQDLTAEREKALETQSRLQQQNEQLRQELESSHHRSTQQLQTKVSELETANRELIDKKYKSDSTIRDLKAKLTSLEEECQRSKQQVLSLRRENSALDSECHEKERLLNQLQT

[3] = target: L. major SAS-6^97–274 Y215K mutant (Leishmania major); assay: AUC; sedimentation equilibrium; 100, 200 and 400 µM protein; 11300, 17000 and 21200 rpm; 4°C; 50 mM Tris, 100 mM NaCl, pH 8.0; monomer-dimer equilibrium model (dimer to monomers)
[4] = target: L. major SAS-6^97–274 wild-type (Leishmania major); assay: as above
[5] = target: L. major SAS-6^97–320 F257E (Leishmania major); assay: crystal structure; L. major SAS-6^97–320 F257E, sitting drop, 100 mM NaCitrate pH 5.85, 21% PEG-3000, 16°C; 94.7 mg/ml protein; 2.9 Å; four molecules in the asymmetric unit
[6] = target: L. major SAS-6^97–424 F257E mutant (Leishmania major); assay: SEC-MALS; Superdex S-200 10/300, 50 mM bisTris, 100 mM NaCl, pH 7.0, 0.126% DMSO, with or without 1 mM PK9119; L. major constructs injected at 25 mg/ml (675 µM monomer), zebrafish constructs at 10 mg/ml (263 µM monomer); peak concentrations about 10-fold lower
[7] = target: L. major SAS-6^97–424 wild-type (Leishmania major); assay: as above
[8] = target: the molecule itself; assay: as above

**Q.** `CCc1cc(Br)cc2c(CN(C)C)c[nH]c12` [PK9119, (5-bromo-7-ethyl-1H-indol-3-ylmethyl)-dimethyl-amine] was tested. Which “SEC-MALS of purified protein with 1 mM PK9119 (oligomerization reduced)” value [1] did it give?
**A.** Its value is “a decrease in the analysed mass from MALS, demonstrating that PK9119 partially affects head-to-head dimerization”.

**Q.** What about the “SEC-MALS of purified protein with 1 mM PK9119 (oligomerization reduced, less tha)” value [2] of the same molecule?
**A.** Its value is “zebrafish SAS-6 oligomerization was also affected by the presence of PK9119, although to a lesser extent”.

**Q.** Which Kd [3] does the source give for “L. major SAS-6^97–274 Y215K mutant (domain or fragment)” here?
**A.** The Kd was 190 µM.

**Q.** “L. major SAS-6^97–274 wild-type (domain or fragment)” was tested. Which Kd [4] did it give?
**A.** The Kd was 622 µM.

**Q.** With “L. major SAS-6^97–320 F257E (domain or fragment)” as the molecule, how does the stoichiometry N [5] read?
**A.** Its stoichiometry N is 8.

**Q.** How did the stoichiometry N [6] turn out when “L. major SAS-6^97–424 F257E mutant (domain or fragment)” was run?
**A.** Its stoichiometry N is 2.

**Q.** With “L. major SAS-6^97–424 wild-type (domain or fragment)” as the molecule, how does the stoichiometry N [7] read?
**A.** The stoichiometry N was 6.

B1: Danio rerio SAS-6^1–326 F131D mutant (domain or fragment)
chain: GPHMTELLFNKRLQVLVKSKDTDERRSVIRVSIELQLPSSPVHRKDLVVRLTDDTDLYFLYNLIISEEDFQSLKVQQGLLIDFTSFPQKFIDLLEQCICEQDKESPRFLLQLSSSSSAFDHSPSNLNIVETNADKHLTHLSLKLLPGSDTDIKKYLASCLSSVKEEKQQLQQKLRKTEEDLTRQLNYAQQTLSEKSRELDKLRSEWTSQTTSLSSRHMQDLTAEREKALETQSRLQQQNEQLRQELESSHHRSTQQLQTKVSELETANRELIDKKYKSDSTIRDLKAKLTSLEEECQRSKQQVLSLRRENSALDSECHEKERLLNQLQT
notes: Dimer by SEC-MALS; source: E. coli BL21 Rosetta, purified (NiNTA, proteolytic tag cleavage, SEC, ion exchange); not shown: His tag, N-terminal, cleaved
**Q.** With B1 as the molecule, how does the “stoichiometry N” value [8] read?
**A.** Its value is 2.

B2: Danio rerio SAS-6^1–326 wild-type (domain or fragment)
chain: B1 chain with D134F
notes: also called zebrafish SAS-6; source: E. coli BL21 Rosetta, purified (NiNTA, proteolytic tag cleavage, SEC, ion exchange); not shown: His tag, N-terminal, cleaved
**Q.** Does B2 bind [8]?
**A.** Result: binds
